How the values were obtained:
[1] = substrate: CC(=O)C(=O)O; experiment: (§1) TP_TRANSPORTER: uptake in Xenopus laevis oocytes; assay type: functional, cell-based; details: Oocyte
[2] = substrate: CC(O)C(=O)[O-].[Na+]; experiment: as §1; assay type: functional, cell-based; details: Oocyte

Row | Protein | Km [1] [mM] | Km [2] [mM]
1 | Monocarboxylate transporter 2 (Homo sapiens), O60669 (protein) MPPMPSAPPVHPPPDGGWGWIVVGAAFISIGFSYAFPKAVTVFFKEIQQIFHTTYSEIAWISSIMLAVMYAGGPVSSVLVNKYGSRPVVIAGGLLCCLGMVLASFSSSVVQLYLTMGFITGLGLAFNLQPALTIIGKYFYRKRPMANGLAMAGSPVFLSSLAPFNQYLFNTFGWKGSFLILGSLLLNACVAGSLMRPLGPNQTTSKSKNKTGKTEDDSSPKKIKTKKSTWEKVNKYLDFSLFKHRGFLIYLSGNVIMFLGFFAPIIFLAPYAKDQGIDEYSAAFLLSVMAFVDMFARPSVGLIANSKYIRPRIQYFFSFAIMFNGVCHLLCPLAQDYTSLVLYAVFFGLGFGSVSSVLFETLMDLVGAPRFSSAVGLVTIVECGPVLLGPPLAGKLVDLTGEYKYMYMSCGAIVVAASVWLLIGNAINYRLLAKERKEENARQKTRESEPLSKSKHSEDVNVKVSNAQSVTSERETNI | 0.025 | 6.5
2 | Monocarboxylate transporter 1 (Rattus norvegicus), P53987 (protein) MPPAIGGPVGYTPPDGGWGWAVVVGAFISIGFSYAFPKSITVFFKEIEIIFSATTSEVSWISSIMLAVMYAGGPISSILVNKYGSRPVMIAGGCLSGCGLIAASFCNTVQELYFCIGVIGGLGLAFNLNPALTMIGKYFYKKRPLANGLAMAGSPVFLSTLAPLNQAFFGIFGWRGSFLILGGLLLNCCVAGSLMRPIGPQQGKVEKLKSKESLQEAGKSDANTDLIGGSPKGEKLSVFQTVNKFLDLSLFTHRGFLLYLSGNVVMFFGLFTPLVFLSNYGKSKHFSSEKSAFLLSILAFVDMVARPSMGLAANTRWIRPRVQYFFAASVVANGVCHLLAPLSTTYVGFCIYAGVFGFAFGWLSSVLFETLMDLVGPQRFSSAVGLVTIVECCPVLLGPPLLGRLNDMYGDYKYTYWACGVILIIAGLYLFIGMGINYRLVAKEQKAEEKKRDGKEDETSTDVDEKPKKTMKETQSPAPLQNSSGDPAEEESPV | 2.5 | 6

— ChEMBL document CHEMBL2073879, “Human monocarboxylate transporter 2 (MCT2) is a high affinity pyruvate transporter” (J Biol Chem, 1998)
